Reference: patent US20100196385A1 (AstraZeneca / MedImmune, published 2010)
Substitutions are numbered along the chain they refer to. In names and notes the source's numbering stands.

What was measured:
[1] = biological target: DLL4 extracellular domain (R&D systems, catalog #1506-D4/CF) (UniProt Q9NR61 27-529, limits assumed); assay: cell-based or functional assay
[2] = biological target: T1, human Dll1 (human, UniProt O00548 18-723); assay: FACS, 15 µg/ml, 293T cells with human Dll1
T1 construct: whole, on cells
T1 sequence (looked up): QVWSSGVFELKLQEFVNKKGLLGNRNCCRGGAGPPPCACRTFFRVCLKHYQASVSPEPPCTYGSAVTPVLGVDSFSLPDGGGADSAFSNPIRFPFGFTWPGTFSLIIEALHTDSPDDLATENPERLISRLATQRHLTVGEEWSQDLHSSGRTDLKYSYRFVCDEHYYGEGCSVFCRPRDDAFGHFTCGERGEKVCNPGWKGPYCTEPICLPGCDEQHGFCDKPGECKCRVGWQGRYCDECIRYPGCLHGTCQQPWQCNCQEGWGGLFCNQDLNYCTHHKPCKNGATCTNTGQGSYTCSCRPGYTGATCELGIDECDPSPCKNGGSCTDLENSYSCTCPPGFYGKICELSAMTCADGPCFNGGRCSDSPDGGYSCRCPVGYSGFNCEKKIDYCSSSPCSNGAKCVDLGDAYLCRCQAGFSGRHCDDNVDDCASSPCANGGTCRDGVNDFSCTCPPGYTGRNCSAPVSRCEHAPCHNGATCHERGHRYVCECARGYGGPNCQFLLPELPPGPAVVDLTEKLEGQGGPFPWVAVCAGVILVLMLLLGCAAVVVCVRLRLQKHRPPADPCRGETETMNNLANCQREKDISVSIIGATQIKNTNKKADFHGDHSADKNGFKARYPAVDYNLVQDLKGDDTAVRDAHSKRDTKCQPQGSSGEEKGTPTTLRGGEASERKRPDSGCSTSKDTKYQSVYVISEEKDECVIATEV
Procedure: (§1) The ability of the purified antibodies to bind to human Jagged1 and Dll1 was determined by FACS analysis. […] Cells were resuspended in PBS containing 2% FCS and seeded at 50000 cells/well into V-bottomed plates. Anti-DLL4 antibodies diluted in PBS containing 2% FCS were added at a final concentration of 5 or 15 μg/ml and plates were incubated for 1 h at 4° C. […] Data was analyzed by comparing the shift in geometric mean fluorescence in the mock-transfected cells to that observed in the Jagged1- or Dll1-transfected cells and is shown in Tables 16 and 17.

[3] = biological target: T2, human Jagged1 (human, UniProt P78504 34-1218); assay: FACS, 5 µg/ml, 293T cells with human Jagged1
T2 construct: whole, on cells
Procedure: as §1

[4] = biological target: T1, human Dll1; assay: FACS, 15 µg/ml, 293T cells with human Dll1 vs mock
Procedure: as §1

[5] = biological target: T2, human Jagged1; assay: FACS, 5 µg/ml, 293T cells with human Jagged1 vs mock
Procedure: as §1

[6] = biological target: T3, full length human DLL4 (human, UniProt Q9NR61 27-685); assay: FMAT, hybridoma supernatant, 293T cells with human DLL4
T3 construct: whole, on cells; also called native DLL4 expressed in HEK293 cells
Procedure: (§2) Cells diluted in PBS containing 2% FBS were seeded at a density of 3000 expressing and 15000 mock transfected cells per well in 384 well plates (Corning Costar, catalog #3712). Immediately after plating, 15 or 20 μl/well of hybridoma supernatants and 10 μl/well of secondary antibody (Goat anti-human IgG Fc Cy5, final concentration 750 ng/ml) were added and plates incubated for 3 h at room temperature prior to reading the fluorescence on the FMAT 8200 instrument (Applied Biosystems). The binding of human Notch1/Fc chimera (R&D systems, catalog #3647-TK), diluted 1:2 from 2.86 μg/ml was used as a positive control for DLL4 and human Notch3/Fc chimera diluted from 10 μg/ml was used a positive control for binding to Jagged1. Results for 12 hybridoma supernatants showing binding of hybridoma supernatants to human/cynomolgus monkey DLL4 and human Jagged are shown in Table 3.

[7] = biological target: T2, human Jagged1; assay: FMAT, hybridoma supernatant, 293T cells with human Jagged1
Procedure: as §2

[8] = biological target: T3, full length human DLL4; assay: FMAT competition, supernatant vs Alexa-647 human Notch1/Fc, 293T cells with human DLL4
Procedure: Transfected and untransfected 239T cells were reconstituted in PBS containing 2% FCS and 5000 transfected and 17500 non-transfected cells were plated in 20 μl into wells of a 384-well tissue culture plate (Corning Costar, catalog #3712). Subsequently, 20 μl of hybridoma supernatant was added and plates were incubated at 4° C. for 1 h, at which time 20 μl of Alexa-647 labeled human Notch1/Fc was added at a final concentration of 6.7 ng/ml. After a further 3 h incubation at 4° C., the amount of bound Notch1/Fc was determined by reading the fluorescence in each well using an FMAT 8200 instrument (Applied Biosystems). Results are expressed as % inhibitions with the minimum inhibition in the assay being determined by the effects of non-DLL4 binding supernatants prepared in a similar way as described in example 2, and the maximum inhibition being defined as the signal obtained in the presence of a saturating concentration of unlabeled Notch1/Fc. N.T.=not tested

[9] = biological target: T3, full length human DLL4; assay: FMAT competition, purified antibody vs Alexa-647 human Notch1/Fc, 293T cells with human DLL4
Procedure: To discriminate between the purified antibodies based upon their ability to prevent the interaction between full-length recombinant DLL4 and soluble Notch1/Fc, the following assays were performed. Transfected and untransfected 239T cells were reconstituted in PBS containing 2% FCS and 5000 transfected and 17500 non-transfected cells were plated in 30 μl into wells of a 384-well tissue culture plate (Corning Costar, catalog #3712). Subsequently, 30 μl of purified antibodies, serial diluted from 5 μg/ml hybridoma supernatant was added and plates were incubated at 4° C. for 1 h, at which time 20 μl of 100 ng/ml Alexa-647 labeled human Notch1/Fc was added. After a further 3 h incubation at 4° C., the amount of bound Notch1/Fc was determined by reading the fluorescence in each well using an FMAT 8200 instrument (Applied Biosystems).

[10] = biological target: T3, full length human DLL4; assay: FACS competition vs Notch1/Fc, HEK293 cells with human DLL4
Procedure: Further experiments were performed on selected antibodies using HEK293 cells that were stably transfected with either human, mouse or cynomolgus monkey DLL4 using retroviral constructs. In these experiments, anti-DLL4 antibodies (final concentration: 10-0.01 μg/ml) diluted in PBS containing 2% FCS were added to DLL4-expressing HEK 293 cells (50000 cells/well diluted in PBS containing 2% FCS) and incubated for 1 h at 4° C. Subsequently, Alexa-647 labeled human, rat or APC labeled mouse Notch1/Fc (e.g. R&D Systems, catalog #3647-TK-050, 1057-TK-050, 5267-TK-050, respectively) was added at a final concentration of 0.01-0.5 μg/ml and plates were incubated for a further 2 h at 4° C. prior to washing and reading on a FACSCalibur instrument.
The activity of the mutated antibodies was assessed in two ways: firstly, the ability of the antibodies to block the binding of soluble Notch1/Fc to full length human DLL4 stably expressed in HEK293 cells as described in Example 3 was determined and, secondly, the binding of the antibodies to the same cell line used in the receptor-ligand competition studies was determined. For the binding studies, HEK293 cells stably overexpressing human DLL4 were resuspended in PBS containing 2% FCS at a concentration of 50,000 cells/well and incubated with titrations of antibody (final concentrations 0.01-10 μg/ml) for 1 h at 4° C. The cells were then washed and incubated with 0.31 μg/ml anti-human IgG-Fc-FITC (BD Pharmingen, cat#555786) for 30 minutes at 4° C. Bound […] was detected using FACS analysis. Results of these studies are summarized in Table 23, which show the effects of specific mutations to sequences of 9G8 and 2H10 on the ability of the antibodies to compete with Notch1 for binding to human DLL4 or to bind to human DLL4 relative to unmutated antibodies.

T3 sequence (Q9NR61 27-685): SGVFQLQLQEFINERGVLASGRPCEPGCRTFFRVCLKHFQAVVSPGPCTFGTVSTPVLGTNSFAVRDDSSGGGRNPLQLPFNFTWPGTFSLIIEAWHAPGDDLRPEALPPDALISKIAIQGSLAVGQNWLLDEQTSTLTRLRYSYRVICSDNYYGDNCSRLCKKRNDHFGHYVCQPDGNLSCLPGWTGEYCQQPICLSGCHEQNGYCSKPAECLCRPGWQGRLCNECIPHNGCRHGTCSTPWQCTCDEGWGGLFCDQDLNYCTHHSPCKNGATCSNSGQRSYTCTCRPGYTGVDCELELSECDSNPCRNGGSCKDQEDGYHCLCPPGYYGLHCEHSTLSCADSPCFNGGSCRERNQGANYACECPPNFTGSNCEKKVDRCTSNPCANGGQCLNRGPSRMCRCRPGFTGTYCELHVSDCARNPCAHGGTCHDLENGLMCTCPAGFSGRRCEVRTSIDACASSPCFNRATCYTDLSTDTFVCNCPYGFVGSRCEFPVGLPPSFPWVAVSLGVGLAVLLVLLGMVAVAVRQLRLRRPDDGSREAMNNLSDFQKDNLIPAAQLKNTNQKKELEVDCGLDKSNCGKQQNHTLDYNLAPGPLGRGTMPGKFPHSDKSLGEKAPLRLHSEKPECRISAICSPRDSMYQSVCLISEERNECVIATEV
T2 sequence (P78504 34-1218): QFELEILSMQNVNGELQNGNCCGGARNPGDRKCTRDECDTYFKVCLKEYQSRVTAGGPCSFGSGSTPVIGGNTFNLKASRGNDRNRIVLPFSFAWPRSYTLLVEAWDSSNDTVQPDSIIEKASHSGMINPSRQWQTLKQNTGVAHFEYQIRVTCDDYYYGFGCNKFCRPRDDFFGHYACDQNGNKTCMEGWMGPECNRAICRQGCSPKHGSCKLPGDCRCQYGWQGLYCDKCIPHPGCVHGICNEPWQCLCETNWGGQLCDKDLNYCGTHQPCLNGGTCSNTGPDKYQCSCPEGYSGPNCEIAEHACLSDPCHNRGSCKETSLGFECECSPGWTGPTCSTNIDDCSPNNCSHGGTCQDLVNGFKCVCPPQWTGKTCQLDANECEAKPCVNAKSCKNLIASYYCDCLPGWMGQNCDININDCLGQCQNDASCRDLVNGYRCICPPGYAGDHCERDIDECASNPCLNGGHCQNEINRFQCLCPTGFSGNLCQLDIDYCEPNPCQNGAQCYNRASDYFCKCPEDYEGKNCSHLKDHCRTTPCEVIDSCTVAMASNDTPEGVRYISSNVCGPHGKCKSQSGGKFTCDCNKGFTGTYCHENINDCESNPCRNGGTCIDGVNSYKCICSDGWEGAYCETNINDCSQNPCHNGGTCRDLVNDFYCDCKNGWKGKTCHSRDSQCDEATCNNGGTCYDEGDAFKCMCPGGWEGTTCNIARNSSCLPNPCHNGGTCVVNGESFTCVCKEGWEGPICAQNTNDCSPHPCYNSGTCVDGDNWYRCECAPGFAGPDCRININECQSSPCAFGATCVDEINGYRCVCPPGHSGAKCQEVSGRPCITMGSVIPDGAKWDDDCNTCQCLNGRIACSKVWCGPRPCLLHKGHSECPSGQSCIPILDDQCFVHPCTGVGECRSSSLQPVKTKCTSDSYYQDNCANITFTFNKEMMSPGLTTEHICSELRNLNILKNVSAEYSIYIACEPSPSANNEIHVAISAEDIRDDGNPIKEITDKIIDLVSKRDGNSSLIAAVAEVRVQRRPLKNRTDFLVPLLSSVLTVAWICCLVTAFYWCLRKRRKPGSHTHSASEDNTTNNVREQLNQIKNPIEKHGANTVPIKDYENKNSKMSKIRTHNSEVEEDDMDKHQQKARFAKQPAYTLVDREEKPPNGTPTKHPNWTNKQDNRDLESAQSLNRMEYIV
DLL4 extracellular domain (R&D systems, catalog #1506-D4/CF), sequence (Q9NR61 27-529 limits assumed): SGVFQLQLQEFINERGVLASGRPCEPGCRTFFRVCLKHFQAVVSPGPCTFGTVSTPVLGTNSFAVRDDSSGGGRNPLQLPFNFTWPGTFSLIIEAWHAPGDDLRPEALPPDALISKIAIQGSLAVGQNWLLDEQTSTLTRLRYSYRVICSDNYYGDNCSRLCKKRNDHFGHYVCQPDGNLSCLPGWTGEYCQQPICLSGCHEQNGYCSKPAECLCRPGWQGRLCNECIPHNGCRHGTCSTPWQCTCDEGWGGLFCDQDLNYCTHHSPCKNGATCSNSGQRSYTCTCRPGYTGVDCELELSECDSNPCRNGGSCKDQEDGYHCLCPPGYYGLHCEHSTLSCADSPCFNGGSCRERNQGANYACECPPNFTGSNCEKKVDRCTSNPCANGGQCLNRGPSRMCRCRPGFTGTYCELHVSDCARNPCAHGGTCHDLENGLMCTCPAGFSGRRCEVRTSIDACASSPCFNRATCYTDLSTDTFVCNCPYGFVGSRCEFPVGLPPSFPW

B1: 1D4 (antibody, IgG4, V domains shown)
VH: QLQLQESGPGLVKPSETLSLTCTVSGGSISSSSYYWGWIRQPPGKGLEWIGSFYYSRSTYYNPSLKSRVTISVDTSKNQFSLKLSSVTAADTAVHYCARGSIAVPDAFDIWGQGTMVTVSS
VL: SYELTQPPSVSVSPGQTASITCSGDKLGDKFACWYQQKPGHSPVLVVYQDNKRPSGIPERFSGSNSGNSATLTISGTQAMDEADYYCQAWDSNTAVFGGGTKLTVL
notes: Fully human XenoMouse antibody; also used where no isotype is printed
Q: How did the “% inhibition 1 µg/ml, AVERAGE (HUVEC proliferation on coated DLL4)” value [1] turn out when B1 was run?
A: 45%

Q: And the “% inhibition 1 µg/ml, N = 1 (HUVEC proliferation on coated DLL4)” value [1]?
A: 43%

Q: What about the “% inhibition 1 µg/ml, N = 2 (HUVEC proliferation on coated DLL4)” value [1] of the same binder?
A: 46%

Q: And the “% inhibition 10 µg/ml, AVERAGE (HUVEC proliferation on coated DLL4)” value [1]?
A: 72%

Q: What about the “% inhibition 10 µg/ml, N = 1 (HUVEC proliferation on coated DLL4)” value [1] of the same binder?
A: 73%

Q: And the “% inhibition 10 µg/ml, N = 2 (HUVEC proliferation on coated DLL4)” value [1]?
A: 71%

Q: And the “Dll1/293T X Geo mean” value [2]?
A: 35.3

Q: What about the “Jagged1/293T X Geo mean” value [3] of the same binder?
A: 16.8

Q: What about the Dll1/mock ratio [4] of the same binder?
A: 1.09

Q: And the Jagged1/mock ratio [5]?
A: 1.01

Q: And the Count [6]?
A: 196

Q: What about the FL1 [6] of the same binder?
A: 10600

Q: What about the FL1 x count [6] of the same binder?
A: 2.08e+06

Q: And the Count [7]?
A: 23

Q: And the FL1 [7]?
A: 3250

Q: And the FL1 x count [7]?
A: 74800

Q: And the “% inhibition n = 1” value [8]?
A: 105%

Q: What about the “% inhibition n = 2” value [8] of the same binder?
A: 71%

Q: What about the “% inhibition n = 3” value [8] of the same binder?
A: 146%

Q: What about the Mean % inhibition [8] of the same binder?
A: 107%

Q: And the “% inhibition at 0.020 nM” value [9]?
A: 7%

Q: And the “% inhibition at 0.070 nM” value [9]?
A: -2%

Q: And the “% inhibition at 0.21 nM” value [9]?
A: 5%

Q: And the “% inhibition at 0.62 nM” value [9]?
A: 13%

Q: And the “% inhibition at 1.9 nM” value [9]?
A: 58%

Q: What about the “% inhibition at 5.6 nM” value [9] of the same binder?
A: 124%

Q: And the “% inhibition at 16.7 nM” value [9]?
A: 123%

Q: And the IC50 [9]?
A: 2 nM

B2: 9G8 IgG2 VH wt/VL C33A (antibody, V domains shown)
VH: QLQLQESGPGLVKPSETLSLSCTVSGGSISSSSSYWGLIRQPPGKGLEWIGSIYYSGSTYYSPSLKSRVSISVDTSKNQFSLKLSSVTAADTAVYFCARQGYGGHPDVFDIWGQGTMVTVSS
VL: SSELTQSPSVSVSPGQTARITCSGDKLGDVYVAWYQQKTGQSPVLVIYEDTKRPSGIPERFSGSNSGNTATLTISGTQVMDEADYYCQAWDSTTAVIFGGGTKLTVL
notes: IgG2
Q: B2 was tested. Which IC50 [10] did it give?
A: 0.302 µg/mL

B3: 9G8 IgG2 VH wt/VL C33D (antibody, V domains shown)
VH: B2 VH
VL: B2 VL with A33D
notes: IgG2
Q: For B3, which IC50 [10] is on record?
A: 0.345 µg/mL

B4: 9G8 IgG2 VH wt/VL C33G (antibody, V domains shown)
VH: B2 VH
VL: B2 VL with A33G
notes: IgG2
Q: For B4, which IC50 [10] is on record?
A: 0.358 µg/mL

B5: 9G8 IgG2 VH wt/VL C33R (antibody, V domains shown)
VH: B2 VH
VL: B2 VL with A33R
notes: IgG2
Q: With B5 as the binder, how does the IC50 [10] read?
A: 0.201 µg/mL

B6: 9G8 IgG2 VH wt/VL C33Y (antibody, V domains shown)
VH: B2 VH
VL: B2 VL with A33Y
notes: IgG2
Q: B6 was tested. Which IC50 [10] did it give?
A: 0.32 µg/mL

B7: 2H10 IgG2 VH M93V/VL C33S (antibody, V domains shown)
VH: QVQLVESGGGVVQPGRSLRLSCAASGFTFSRHGMHWVRQAPGKGLEWVAVVWFDGSNIYYADSVKGRFTISRDNSKNTLYLQMNSLRAEDTAVYYCARDSRIAAADYWGQGTLVTVSS
VL: SYELTQPPSVSVSPGQTVSITCSGDKLGDKYVSWYQQKPGQSPVLVIYQESKRPSGIPERFSGSSSGNTATLTISGTQAMDEADYYCQTWDSSLVVFGGGTKLTVL
notes: IgG2
Q: With B7 as the binder, how does the IC50 [10] read?
A: 0.138 µg/mL

B8: 2H10 IgG2 VH M93V/VL wt (antibody, V domains shown)
VH: B7 VH
VL: B7 VL with S33C
notes: IgG2
Q: With B8 as the binder, how does the IC50 [10] read?
A: 0.264 µg/mL

B9: 2H10 IgG2 VH wt/VL C33A (antibody, V domains shown)
VH: B7 VH with V93M
VL: B7 VL with S33A
notes: IgG2
Q: For B9, which IC50 [10] is on record?
A: 0.174 µg/mL

B10: 2H10 IgG2 VH wt/VL C33D (antibody, V domains shown)
VH: B7 VH with V93M
VL: B7 VL with S33D
notes: IgG2
Q: How did the IC50 [10] turn out when B10 was run?
A: 0.178 µg/mL

B11: 2H10 IgG2 VH wt/VL C33G (antibody, V domains shown)
VH: B7 VH with V93M
VL: B7 VL with S33G
notes: IgG2
Q: B11 was tested. Which IC50 [10] did it give?
A: 0.314 µg/mL

B12: 2H10 IgG2 VH wt/VL C33R (antibody, V domains shown)
VH: B7 VH with V93M
VL: B7 VL with S33R
notes: IgG2
Q: With B12 as the binder, how does the IC50 [10] read?
A: 2.97 µg/mL
